# Measured values taken from patent US7763426B2, “Probes and methods for detection of Escheridia coli and antibiotic resistance” (priority 2004, dated 2010).
# {Fluorescein} = fluorescein label (binding site for anti-fluorescein Fab-HRP); {Biotin} = biotin (capture probe anchor)
# B1: EB: Enterobacteriaceae probe pair: capture SEQ ID NO: 11, detector SEQ ID NO: 12 (nucleic acid, listed as Enterobacter sp.)
# DNA 1: CGGACTACGACATACTTTATGAGGTCCGCTTGCTC
# DNA 2: GAGGTCGCTTCTCTTTGTATATGCCATTGTAGCAC
# modifications: DNA 1: DNA, 5' {Biotin}, backbone and methylation of C not given here; DNA 2: DNA, 5' {Fluorescein}, backbone and methylation of C not given here
# B2: KE: Klebsiella & Enterobacter spp. probe pair: capture SEQ ID NO: 5, detector SEQ ID NO: 6 (nucleic acid, listed as Enterobacter sp.)
# DNA 1: GTCAATCGMCRAGGTTATTAACCTYAHCGCCTTCC
# DNA 2: CTGAAAGTGCTTTACAACCCGAAGGCCTTCTTCAT
# modifications: DNA 1: DNA, 5' {Biotin}, backbone, methylation of C and the base at N not given here; DNA 2: DNA, 5' {Fluorescein}, backbone and methylation of C not given here; Capture probe contains degenerate positions (M, R, Y, H)
# B3: PA: Pseudomonas aeruginosa probe pair: capture SEQ ID NO: 7, detector SEQ ID NO: 8 (nucleic acid, listed as Pseudomonas aeruginosa)
# DNA 1: CCCACTTTCTCCCTCAGGACGTATGCGGTATTAGC
# DNA 2: TTCCGGACGTTATCCCCCACTACCAGGCAGATTCC
# modifications: DNA 1: DNA, 5' {Biotin}, backbone and methylation of C not given here; DNA 2: DNA, 5' {Fluorescein}, backbone and methylation of C not given here
# B4: EF: Enterococcus spp probe pair: capture SEQ ID NO: 9, detector SEQ ID NO: 10 (nucleic acid, listed as Enterococcus sp.)
# DNA 1: TTGGTGAGCCGTTACCTCACCAACTAGCTAATGCA
# DNA 2: GTCCATCCATCAGCGACACCCGAAAGCGCCTTTCA
# modifications: DNA 1: 5' {Biotin}, sugars by position and backbone not given here; DNA 2: 5' {Fluorescein}, sugars by position and backbone not given here
# Legend:
# Type in all cases: binding
# bacterial 16S rRNA [1] = experiment: Species specificity of short probe pairs, 16 sensor array at ambient temperature (Example 5); conditions: for Species detected: ambient temperature hybridization; for Species not detected: * cross-reactivity at a level significantly less than with the target species
# bacterial 16S rRNA [2] = experiment: Clinical validity study: UTI Chip on blinded clinical urine specimens
# Method: Amperometric detection of bacterial 16S rRNA. An overview of the electrochemical sensor detection strategy is presented in panel C of FIG. 1. One ml of bacteria in Luria broth, inoculated clean urine, or clinical urine samples was centrifuged at 10,000×g for 5 min. The supernatant was discarded and the bacteria were lysed by resuspension of the pellet in 10 μl of 1 M NaOH and incubation at room temperature for 5 min. In some experiments, addition of 1M NaOH was preceded by resuspension of the bacterial pellet in 10 μl of 0.1% Triton X-100, 2 mM EDTA, and 1 mg/ml lysozyme (Sigma) in 20 mM Tris-HCl, pH 8.0, and incubation at room temperature for 5 min. 50 μl of the detector probe (0.25 μM) in 2.5% bovine serum albumin (Sigma, St. Louis, Mo.) 1 M phosphate buffer, pH 7.4, were added to the bacterial lysate and incubated for 10 min at 65° C. to allow target-probe hybridization. 4 μl of the bacterial lysate/detector probe mixture was deposited on each of the working electrodes in the sensor array and incubated for 15 min at 65° C. in a humidified chamber. After washing and drying, 4 μl of 0.5 U/ml anti-fluorescein horseradish peroxidase (HRP) Fab fragments (Roche, diluted in 0.5% casein in 10 mM phosphate buffered saline, pH 7.4) were deposited on each of the working electrodes for 15 min. After washing and drying, a prefabricated plastic well manifold (GeneFluidics, Monterey Park, Calif.) was bonded to the sensor array. The sensor array was put into the chip reader (FIG. 18) and 50 μl of 3,3′,5,5′-tetramethylbenzidine (TMB), H2O2 solution (K-Blue Low Activity TMB Substrate, Neogen, Lexington, Ky.) was placed on each of the sensors in the array so as to cover all three electrodes of each sensor. Electrochemical measurements are immediately and simultaneously taken for all 16 sensors. For each array, negative control (NC) sensors were tested including the UNI capture probe, detector probe, and 2.5% bovine serum albumin (Sigma, St, Louis, Mo.) in 1 M phosphate buffer, pH 7.4, instead of bacterial lysate. The entire assay protocol was completed within 45 min from the time when bacterial lysis was commenced. Amperometric current vs. time was measured using a multichannel potentiostat (GeneFluidics). The voltage was fixed at −200 mV (vs. reference), and the electroreduction current was measured at 60 s after the HRP redox reaction reached steady state.
# Clinical validity study design. Clinical urine specimens were received from routine urine cultures collected from inpatients and outpatients and submitted to the UCLA Clinical Microbiology Laboratory. Routine plating on tripticase soy agar with 5% sheep blood was performed on each specimen for phenotypic identification and colony counting while an aliquot of each specimen was held at 4° C. overnight. On the day after plating, specimens were selected for inclusion in the study on the basis of a rapid indole test for the purpose of including uropathogens other than Escherichia coli in approximately one-half of the specimens. The other half of the specimens were divided between E. coli-containing specimens and specimens determined to have ““no significant growth” or no growth” (see definitions below). Because most UTIs involve a single uropathogen, specimens determined by the clinical microbiology laboratory to have more than one organism present were excluded. Blinded specimens selected for inclusion in the study were stripped of patient identifiers and any microbiological data before delivery to the research laboratory for testing with the electrochemical sensor array.
# Experiments were performed on all specimens using the 16-sensor array ‘UTI Chip’, in which the UNI, EB, EC, PM, KE, PA, and EF capture probes (defined in Tables 1 and 2) were tested in duplicate. The two remaining sensors served as negative controls (including capture and detector probes without bacterial lysate). […]
# [3] = test system: 16S rRNA in lysates of uropathogens; experiment: Species specificity of uropathogen probe pairs with the electrochemical sensor array (Example 1); conditions: probe pairs of Table 1
# [4] = No Significant Growth specimens
# [5] = specimens with Citrobacter freundii
# [6] = specimens with Citrobacter koseri
# [7] = specimens with Enterobacter aerogenes
# [8] = specimens with Enterobacter cloacae
# [9] = specimens with Enterobacteriaceae
# [10] = specimens with Enterococcus species
# [11] = specimens with Escherichia coli
# [12] = specimens with Gram-negative bacteria
# [13] = specimens with Klebsiella pneumoniae
# [14] = specimens with Proteus mirabilis
# [15] = specimens with Pseudomonas aeruginosa
# [16] = specimens with Serratia marcescens
molecule,measurement,setting,value
"PM197C (21 mer)/PM176D (21 mer): Proteus mirabilis probe pair, SEQ ID NO: 46 and 47 (DNA 1 CATCCGATAGTGCAAGGTCCG; DNA 2 AAGAGCCCCTGCTTTGGTCCG; DNA 1: 5' {Biotin}, sugars by position and backbone not given here; DNA 2: 3' {Fluorescein}, sugars by position and backbone not given here; listed as Proteus mirabilis)",Species detected,bacterial 16S rRNA [1],Pm
same,Species not detected,bacterial 16S rRNA [1]; ambient temperature,"Ea, Ec, Ef, Kp, Pa"
"EB1275C (23 mer)/EB1252C (23 mer): Enterobacteriaceae probe pair, SEQ ID NO: 54 and 55 (DNA 1 ACTTTATGAGGTCCGCTTGCTCT; DNA 2 CGCGAGGTCGCCTTCCTTTGTAT; DNA 1: DNA, 5' {Biotin}, backbone and methylation of C not given here; DNA 2: DNA, 3' {Fluorescein}, backbone and methylation of C not given here; listed as Enterobacter sp.)",Species detected,bacterial 16S rRNA [1],"Ec, Kp, Pm, Ea"
same,Species not detected,bacterial 16S rRNA [1]; ambient temperature,"Pa, Ef"
"EF187C (20 mer)/EF167D (20 mer): Enterococcus spp. probe pair, SEQ ID NO: 52 and 53 (DNA 1 ACCGCGGGTCCATCCATCAG; DNA 2 CGACACCCGAAAGCGCCTTT; DNA 1: 5' {Biotin}, sugars by position and backbone not given here; DNA 2: 3' {Fluorescein}, sugars by position and backbone not given here; listed as Enterococcus sp.)",Species detected,bacterial 16S rRNA [1],Ef
same,Species not detected,bacterial 16S rRNA [1]; ambient temperature,"Ea, Ec, Kp, Pa, Pm"
"KP436C (11 mer)/KP425D (11 mer): Klebsiella pneumoniae probe pair, SEQ ID NO: 48 and 49 (DNA 1 CTYAHCGCCTT; DNA 2 CCTCCCCGCTG; DNA 1: 5' {Biotin}, sugars by position, backbone and the base at N not given here; DNA 2: 3' {Fluorescein}, sugars by position and backbone not given here; listed as Klebsiella pneumoniae)",Species detected,bacterial 16S rRNA [1],Kp
same,Species not detected,bacterial 16S rRNA [1]; ambient temperature,"Ea, Ec, Ef, Pa, Pm"
"PA122C (15 mer)/PA107D (15 mer): Pseudomonas aeruginosa probe pair, SEQ ID NO: 50 and 51 (DNA 1 CCCACTTTCTCCCTC; DNA 2 AGGACGTATGCGGTA; DNA 1: 5' {Biotin}, sugars by position and backbone not given here; DNA 2: 3' {Fluorescein}, sugars by position and backbone not given here; listed as Pseudomonas aeruginosa)",cross-reactivity with P. mirabilis 16S,bacterial 16S rRNA [1]; ambient temperature,Weak cross-reactivity
same,Species detected,bacterial 16S rRNA [1],Pa
same,Species not detected,bacterial 16S rRNA [1]; ambient temperature,"Ea, Ec, Ef, Kp, Pm*"
B1,sensitivity for detection of Gram-negative bacteria in clinical urine specimens,bacterial 16S rRNA [2],98%
same,Positive/Total = Percent,bacterial 16S rRNA [2]; All specimens with bacteria,46/47 = 98%^2
same,Positive/Total = Percent,bacterial 16S rRNA [2]; No Growth specimens,0/12 = 0%
same,Positive/Total = Percent,bacterial 16S rRNA [2]; [4],0/8 = 0%
same,Mean (range),bacterial 16S rRNA [2]; [5],1.32 (1.25-1.38) log10 units over background
same,Positive/Total = Percent,bacterial 16S rRNA [2]; [5],2/2 = 100%
same,Mean (range),bacterial 16S rRNA [2]; [6],1.29 log10 units over background
same,Positive/Total = Percent,bacterial 16S rRNA [2]; [6],1/1 = 100%
same,Mean (range),bacterial 16S rRNA [2]; [7],1.20 (0.82-1.52) log10 units over background
same,Positive/Total = Percent,bacterial 16S rRNA [2]; [7],5/5 = 100%
same,Mean (range),bacterial 16S rRNA [2]; [8],1.08 log10 units over background
same,Positive/Total = Percent,bacterial 16S rRNA [2]; [8],1/1 = 100%
same,Mean (range),bacterial 16S rRNA [2]; [9],1.17 (0.46-1.60) log10 units over background
same,Positive/Total = Percent,bacterial 16S rRNA [2]; [9],46/47 = 98%
same,Positive/Total = Percent,bacterial 16S rRNA [2]; [10],0/8 = 0%
same,Mean (range),bacterial 16S rRNA [2]; [11],1.17 (0.46-1.60) log10 units over background
same,Positive/Total = Percent,bacterial 16S rRNA [2]; [11],25/26 = 96%
same,Mean (range),bacterial 16S rRNA [2]; [12],1.17 (0.46-1.60) log10 units over background
same,Positive/Total = Percent,bacterial 16S rRNA [2]; [12],46/47 = 98%^2
same,Positive/Total = Percent,bacterial 16S rRNA [2]; specimens with Gram-positive bacteria,0/10 = 0%
same,Mean (range),bacterial 16S rRNA [2]; [13],1.13 (0.46-1.13) log10 units over background
same,Positive/Total = Percent,bacterial 16S rRNA [2]; [13],8/8 = 100%
same,Mean (range),bacterial 16S rRNA [2]; [14],1.14 (0.92-1.45) log10 units over background
same,Positive/Total = Percent,bacterial 16S rRNA [2]; [14],3/3 = 100%
same,Positive/Total = Percent,bacterial 16S rRNA [2]; [15],0/1 = 0%
same,Mean (range),bacterial 16S rRNA [2]; [16],1.36 log10 units over background
same,Positive/Total = Percent,bacterial 16S rRNA [2]; [16],1/1 = 100%
same,Positive/Total = Percent,bacterial 16S rRNA [2]; specimens with Staph. saprophyticus,0/2 = 0%
same,Species detected,[3],"Cf, Ea, Ec, El, Ko, Kp, Mm, Pm,"
same,Species not detected,[3],"Ef, Eo, Pa, Sa, Ss"
B2,Mean (range),bacterial 16S rRNA [2]; [7],0.86 (0.37-1.26) log10 units over background
same,Positive/Total = Percent,bacterial 16S rRNA [2]; [7],KE 5/5 = 100%
same,Mean (range),bacterial 16S rRNA [2]; [8],0.34 log10 units over background
same,Positive/Total = Percent,bacterial 16S rRNA [2]; [8],KE 1/1 = 100%
same,Mean (range),bacterial 16S rRNA [2]; [13],1.16 (0.76-1.50) log10 units over background
same,Positive/Total = Percent,bacterial 16S rRNA [2]; [13],KE 7/8 = 88%
same,Species detected,[3],"Ea, El, Ko, Kp"
same,Species not detected,[3],"Cf, Ec, Pa, Pm"
B3,Mean (range),bacterial 16S rRNA [2]; [15],0.55 log10 units over background
same,Positive/Total = Percent,bacterial 16S rRNA [2]; [15],Pa 1/1 = 100%
same,Mean (range),bacterial 16S rRNA [2]; [16],Pa 0.36 log10 units over background
same,Positive/Total = Percent,bacterial 16S rRNA [2]; [16],False Positive
same,Species detected,[3],Pa
same,Species not detected,[3],"Ec, Ef, El, Eo, Kp, Pm"
B4,Mean (range),bacterial 16S rRNA [2]; [4],0.31 log10 units over background
same,Positive/Total = Percent,bacterial 16S rRNA [2]; [4],Ef 1/8 = 13%
same,Mean (range),bacterial 16S rRNA [2]; [10],0.99 (0.63-1.36) log10 units over background
same,Positive/Total = Percent,bacterial 16S rRNA [2]; [10],Ef 2/8 = 25%
same,Species detected,[3],"Ef, Eo"
same,Species not detected,[3],"Ec, Kp, Pa, Pm, Sa"
